Laboratory results published in IntAct's records for PubMed 19219046.

B1: ATP-dependent RNA helicase DDX19B (Homo sapiens), Q9UMR2-1 (parent)
chain: MATDSWALAVDEQEAAAESLSNLHLKEEKIKPDTNGAVVKTNANAEKTDEEEKEDRAAQSLLNKLIRSNLVDNTNQVEVLQRDPNSPLYSVKSFEELRLKPQLLQGVYAMGFNRPSKIQENALPLMLAEPPQNLIAQSQSGTGKTAAFVLAMLSQVEPANKYPQCLCLSPTYELALQTGKVIEQMGKFYPELKLAYAVRGNKLERGQKISEQIVIGTPGTVLDWCSKLKFIDPKKIKVFVLDEADVMIATQGHQDQSIRIQRMLPRNCQMLLFSATFEDSVWKFAQKVVPDPNVIKLKREEETLDTIKQYYVLCSSRDEKFQALCNLYGAITIAQAMIFCHTRKTASWLAAELSKEGHQVALLSGEMMVEQRAAVIERFREGKEKVLVTTNVCARGIDVEQVSVVINFDLPVDKDGNPDNETYLHRIGRTGRFGKRGLAVNMVDSKHSMNILNRIQEHFNKKIERLDTDDLDEIEKIAN

Variants of: B1
Settings: with NUP214, P35658-1
Chain of NUP214, P35658-1 (P35658 whole entry): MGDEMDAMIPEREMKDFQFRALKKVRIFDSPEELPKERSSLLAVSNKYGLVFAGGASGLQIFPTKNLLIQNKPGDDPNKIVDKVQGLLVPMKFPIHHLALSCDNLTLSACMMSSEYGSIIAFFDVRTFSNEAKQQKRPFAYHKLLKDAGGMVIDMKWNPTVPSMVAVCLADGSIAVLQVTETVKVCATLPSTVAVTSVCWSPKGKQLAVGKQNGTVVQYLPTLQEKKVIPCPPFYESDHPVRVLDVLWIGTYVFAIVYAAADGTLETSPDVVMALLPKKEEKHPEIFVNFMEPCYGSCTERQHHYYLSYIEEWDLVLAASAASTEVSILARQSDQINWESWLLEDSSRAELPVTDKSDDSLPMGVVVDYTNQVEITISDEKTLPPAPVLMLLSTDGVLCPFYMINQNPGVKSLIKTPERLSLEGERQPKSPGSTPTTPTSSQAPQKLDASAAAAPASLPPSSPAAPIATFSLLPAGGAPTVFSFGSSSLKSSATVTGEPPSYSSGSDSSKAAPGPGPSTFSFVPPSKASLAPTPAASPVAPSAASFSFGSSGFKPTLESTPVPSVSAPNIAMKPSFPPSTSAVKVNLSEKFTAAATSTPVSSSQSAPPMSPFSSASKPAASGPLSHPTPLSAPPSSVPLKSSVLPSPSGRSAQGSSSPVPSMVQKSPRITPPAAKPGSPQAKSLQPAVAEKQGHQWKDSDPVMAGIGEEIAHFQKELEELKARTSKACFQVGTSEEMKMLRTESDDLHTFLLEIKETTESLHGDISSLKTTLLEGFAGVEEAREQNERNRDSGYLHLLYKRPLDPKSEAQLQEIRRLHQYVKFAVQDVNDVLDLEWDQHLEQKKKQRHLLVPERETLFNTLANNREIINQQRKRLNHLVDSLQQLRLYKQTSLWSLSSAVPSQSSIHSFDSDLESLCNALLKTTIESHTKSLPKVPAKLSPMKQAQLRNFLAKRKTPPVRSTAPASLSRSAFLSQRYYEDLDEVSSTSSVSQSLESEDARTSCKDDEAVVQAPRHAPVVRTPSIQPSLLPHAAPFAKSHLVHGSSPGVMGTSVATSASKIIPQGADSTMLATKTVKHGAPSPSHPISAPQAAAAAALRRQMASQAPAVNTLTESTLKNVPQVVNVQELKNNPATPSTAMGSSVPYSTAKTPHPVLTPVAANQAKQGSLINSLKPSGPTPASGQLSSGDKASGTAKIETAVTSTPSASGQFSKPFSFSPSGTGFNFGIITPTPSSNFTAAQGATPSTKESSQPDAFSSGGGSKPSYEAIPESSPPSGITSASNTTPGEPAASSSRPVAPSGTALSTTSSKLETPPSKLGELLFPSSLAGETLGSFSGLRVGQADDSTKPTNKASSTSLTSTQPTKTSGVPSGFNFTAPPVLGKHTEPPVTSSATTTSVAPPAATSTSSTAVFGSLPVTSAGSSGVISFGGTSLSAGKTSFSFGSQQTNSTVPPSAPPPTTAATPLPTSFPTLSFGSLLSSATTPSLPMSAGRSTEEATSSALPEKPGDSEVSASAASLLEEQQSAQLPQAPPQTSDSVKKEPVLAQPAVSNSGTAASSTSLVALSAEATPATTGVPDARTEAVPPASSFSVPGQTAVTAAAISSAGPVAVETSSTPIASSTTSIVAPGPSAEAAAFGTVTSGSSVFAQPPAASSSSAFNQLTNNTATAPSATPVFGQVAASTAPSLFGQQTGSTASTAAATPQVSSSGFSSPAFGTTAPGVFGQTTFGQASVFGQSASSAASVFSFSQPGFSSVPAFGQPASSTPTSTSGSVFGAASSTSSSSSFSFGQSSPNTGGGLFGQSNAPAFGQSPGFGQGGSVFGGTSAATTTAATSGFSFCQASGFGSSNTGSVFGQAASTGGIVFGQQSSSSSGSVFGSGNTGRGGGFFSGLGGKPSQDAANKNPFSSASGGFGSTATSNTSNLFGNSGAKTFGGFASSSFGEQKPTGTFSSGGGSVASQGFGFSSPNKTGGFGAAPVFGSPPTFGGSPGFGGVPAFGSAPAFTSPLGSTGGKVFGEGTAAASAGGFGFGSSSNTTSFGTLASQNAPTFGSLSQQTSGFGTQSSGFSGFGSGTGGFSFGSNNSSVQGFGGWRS

Variant	effect of a mutation on the interaction
MATDSWALAVDEQEAAAESLSNLHLKEEKIKPDTNGAVVKTNANAEKTDEEEKEDRAAQSLLNKLIRSNLVDNTNQVEVLQRDPNSPLYSVKSFEELRLKPQLLQGVYAMGFNRPSKIQENALPLMLAEPPQNLIAQSQSGTGKTAAFVLAMLSQVEPANKYPQCLCLSPTYELALQTGKVIEQMGKFYPELKLAYAVRGNKLERGQKISEQIVIGTPGTVLRWCSKLKFIDPKKIKVFVLDEADVMIATQGHQDQSIRIQRMLPRNCQMLLFSATFEDSVWKFAQKVVPDPNVIKLKREEETLDTIKQYYVLCSSRDEKFQALCNLYGAITIAQAMIFCHTRKTASWLAAELSKEGHQVALLSGEMMVEQRAAVIERFREGKEKVLVTTNVCARGIDVEQVSVVINFDLPVDKDGNPDNETYLHRIGRTGRFGKRGLAVNMVDSKHSMNILNRIQEHFNKKIERLDTDDLDEIEKIAN [D223R]	disrupting interaction
MATDSWALAVDEQEAAAESLSNLHLKEEKIKPDTNGAVVKTNANAEKTDEEEKEDRAAQSLLNKLIRSNLVDNTNQVEVLQRDPNSPLYSVKSFEELRLKPQLLQGVYAMGFNRPSKIQENALPLMLAEPPQNLIAQSQSGTGKTAAFVLAMLSQVEPANKYPQCLCLSPTYELALQTGKVIEQMGKFYPELKLAYAVRGNKLERGQKISEQIVIGTPGTVLDWCSKLKFIDPKKIKVFVLDEADVMIATQGHQDQSIDIQRMLPRNCQMLLFSATFEDSVWKFAQKVVPDPNVIKLKREEETLDTIKQYYVLCSSRDEKFQALCNLYGAITIAQAMIFCHTRKTASWLAAELSKEGHQVALLSGEMMVEQRAAVIERFREGKEKVLVTTNVCARGIDVEQVSVVINFDLPVDKDGNPDNETYLHRIGRTGRFGKRGLAVNMVDSKHSMNILNRIQEHFNKKIERLDTDDLDEIEKIAN [R259D]	disrupting interaction
MATDSWALAVDEQEAAAESLSNLHLKEEKIKPDTNGAVVKTNANAEKTDEEEKEDRAAQSLLNKLIRSNLVDNTNQVEVLQRDPNSPLYSVKSFEELRLKPQLLQGVYAMGFNRPSKIQENALPLMLAEPPQNLIAQSQSGTGKTAAFVLAMLSQVEPANKYPQCLCLSPTYELALQTGKVIEQMGKFYPELKLAYAVRGNKLERGQKISEQIVIGTPGTVLDWCSKLKFIDPKKIKVFVLDEADVMIATQGHQDQSIRIQAMLPRNCQMLLFSATFEDSVWKFAQKVVPDPNVIKLKREEETLDTIKQYYVLCSSRDEKFQALCNLYGAITIAQAMIFCHTRKTASWLAAELSKEGHQVALLSGEMMVEQRAAVIERFREGKEKVLVTTNVCARGIDVEQVSVVINFDLPVDKDGNPDNETYLHRIGRTGRFGKRGLAVNMVDSKHSMNILNRIQEHFNKKIERLDTDDLDEIEKIAN [R262A]	disrupting interaction
MATDSWALAVDEQEAAAESLSNLHLKEEKIKPDTNGAVVKTNANAEKTDEEEKEDRAAQSLLNKLIRSNLVDNTNQVEVLQRDPNSPLYSVKSFEELRLKPQLLQGVYAMGFNRPSKIQENALPLMLAEPPQNLIAQSQSGTGKTAAFVLAMLSQVEPANKYPQCLCLSPTYELALQTGKVIEQMGKFYPELKLAYAVRGNKLERGQKISEQIVIGTPGTVLDWCSKLKFIDPKKIKVFVLDEADVMIATQGHQDQSARIQRMLPRNCQMLLFSATFEDSVWKFAQKVVPDPNVIKLKREEETLDTIKQYYVLCSSRDEKFQALCNLYGAITIAQAMIFCHTRKTASWLAAELSKEGHQVALLSGEMMVEQRAAVIERFREGKEKVLVTTNVCARGIDVEQVSVVINFDLPVDKDGNPDNETYLHRIGRTGRFGKRGLAVNMVDSKHSMNILNRIQEHFNKKIERLDTDDLDEIEKIAN [I258A]	disrupting interaction
